B1: WASH complex subunit 5 (Homo sapiens), Q12768 (parent)
chain: MLDFLAENNLCGQAILRIVSCGNAIIAELLRLSEFIPAVFRLKDRADQQKYGDIIFDFSYFKGPELWESKLDAKPELQDLDEEFRENNIEIVTRFYLAFQSVHKYIVDLNRYLDDLNEGVYIQQTLETVLLNEDGKQLLCEALYLYGVMLLVIDQKIEGEVRERMLVSYYRYSAARSSADSNMDDICKLLRSTGYSSQPGAKRPSNYPESYFQRVPINESFISMVIGRLRSDDIYNQVSAYPLPEHRSTALANQAAMLYVILYFEPSILHTHQAKMREIVDKYFPDNWVISIYMGITVNLVDAWEPYKAAKTALNNTLDLSNVREQASRYATVSERVHAQVQQFLKEGYLREEMVLDNIPKLLNCLRDCNVAIRWLMLHTADSACDPNNKRLRQIKDQILTDSRYNPRILFQLLLDTAQFEFILKEMFKQMLSEKQTKWEHYKKEGSERMTELADVFSGVKPLTRVEKNENLQAWFREISKQILSLNYDDSTAAGRKTVQLIQALEEVQEFHQLESNLQVCQFLADTRKFLHQMIRTINIKEEVLITMQIVGDLSFAWQLIDSFTSIMQESIRVNPSMVTKLRATFLKLASALDLPLLRINQANSPDLLSVSQYYSGELVSYVRKVLQIIPESMFTSLLKIIKLQTHDIIEVPTRLDKDKLRDYAQLGPRYEVAKLTHAISIFTEGILMMKTTLVGIIKVDPKQLLEDGIRKELVKRVAFALHRGLIFNPRAKPSELMPKLKELGATMDGFHRSFEYIQDYVNIYGLKIWQEEVSRIINYNVEQECNNFLRTKIQDWQSMYQSTHIPIPKFTPVDESVTFIGRLCREILRITDPKMTCHIDQLNTWYDMKTHQEVTSSRLFSEIQTTLGTFGLNGLDRLLCFMIVKELQNFLSMFQKIILRDRTVQDTLKTLMNAVSPLKSIVANSNKIYFSAIAKTQKIWTAYLEAIMKVGQMQILRQQIANELNYSCRFDSKHLAAALENLNKALLADIEAHYQDPSLPYPKEDNTLLYEITAYLEAAGIHNPLNKIYITTKRLPYFPIVNFLFLIAQLPKLQYNKNLGMVCRKPTDPVDWPPLVLGLLTLLKQFHSRYTEQFLALIGQFICSTVEQCTSQKIPEIPADVVGALLFLEDYVRYTKLPRRVAEAHVPNFIFDEFRTVL

Variants of: B1
Conditions: with pcna_human PCNA

effect of a mutation on the interaction	Variant
with no effect	V626F
with no effect	N471D
with no effect	L619F

From IntAct's records for PubMed 28514442
